Test results published in article PMC12264004, “Super-resolution imaging of native fluorescent photoreceptors in chytrid fungal eyes” (The EMBO Journal, 2025).

Legend:
[1] = test system: T1, CaRGC (homodimeric, full-length); test: cGMP by reverse-phase HPLC, Hill fit, crude membranes; assay type: biochemical, Catenaria anguillulae; settings: light-triggered; 10 mM MgCl2; HEPES pH 7.4
T1 construct: homodimer; crude membrane fraction (HEK293T); gene as used in Scheib et al 2018

[2] = substrate: Nc1nc2c(ncn2[C@@H]2O[C@H](COP(=O)(O)OP(=O)(O)OP(=O)(O)O)[C@@H](O)[C@H]2O)c(=O)[nH]1; test: cGMP by reverse-phase HPLC, Hill fit; assay type: biochemical, Rhizoclosmatium globosum; settings: GTP:MnCl2 1:2

Nc1nc2c(ncn2[C@@H]2O[C@H](COP(=O)(O)OP(=O)(O)OP(=O)(O)O)[C@@H](O)[C@H]2O)c(=O)[nH]1 [GTP]
Km [1]: 470 ± 50 µM

B1: RGC1-cat (Rhizoclosmatium globosum) (protein)
chain: NGAEEYASVTVFFSDITNFVALSGKSSTKDMLATLNKLWVEYDVICKRWGVYKVETIGDAFLGVVGAPDRIPDHAERAANFAIDVIRMVQDFRTVNDEEIVTRIGLNSGPITAGILGDSNPHWCIVGDAVNTASRMESTSKPMRIHISENTYKLINGKGFKLEGPDVMNIKGKGTMNTYWINGRG
notes: soluble catalytic domain aa 365-551, C-terminal His-tag, E. coli ArcticExpress (DE3), 24,997 g/mol, homodimer
Km [2]: 5530 µM

B2: RGC1-cat/NeoR-cat (Rhizoclosmatium globosum) (protein)
chain 1: NGAEEYASVTVFFSDITNFVALSGKSSTKDMLATLNKLWVEYDVICKRWGVYKVETIGDAFLGVVGAPDRIPDHAERAANFAIDVIRMVQDFRTVNDEEIVTRIGLNSGPITAGILGDSNPHWCIVGDAVNTASRMESTSKPMRIHISENTYKLINGKGFKLEGPDVMNIKGKGTMNTYWINGRG
chain 2: TGAEEYSCVTVFFSDIANFTPLSQRTSTKDMLASLNNMWIEYDKISKKWGMYKVETIGDAFLGVVGAPDRVPDHAERAAEFSIDIIDMIKDFRLVTGEPIQIRAGLNSGPVTAGILGESNPHWCIVGDTVTIASKMEATSKHMKIHIAESTFNLIKSSGKFRTSDSEPVTIKGNVINTFFIEGRA
notes: equimolar mixture of purified C-terminally His-tagged catalytic domains (E. coli); heterodimer, some RGC1-cat homodimer remains
Km ([2]; equimolar mixture): 1540 µM

B3: RGC2-cat/NeoR-cat (Rhizoclosmatium globosum) (protein)
chain 1: ATGSEEYSSVTVFFSDVTNFHALSNKNSTKEMLATLNKLWIEYDVICKRWGVYKVETIGDAFLGVVGAPERVPDHAERAANFAVDVISMVQDFRTDKGEELITRVGLNSGPITAGILGDSNPHWCIVGDAVNTASRMESTSKPMRIHISENTYKLIKNKGFRLEGPDVMNIKGKGTMNTYWINGRS
chain 2: TGAEEYSCVTVFFSDIANFTPLSQRTSTKDMLASLNNMWIEYDKISKKWGMYKVETIGDAFLGVVGAPDRVPDHAERAAEFSIDIIDMIKDFRLVTGEPIQIRAGLNSGPVTAGILGESNPHWCIVGDTVTIASKMEATSKHMKIHIAESTFNLIKSSGKFRTSDSEPVTIKGNVINTFFIEGRA
notes: equimolar mixture of purified C-terminally His-tagged catalytic domains (E. coli); heterodimer
Km ([2]; equimolar mixture): 980 µM
